Patent CN106117361A

Target: CD3 on Jurkat cells (Jurkat靶标细胞) (UniProt P07766)
Experiment: flow cytometry, culture supernatant on Jurkat cells

UniProt P07766, sequence (P07766 23-207): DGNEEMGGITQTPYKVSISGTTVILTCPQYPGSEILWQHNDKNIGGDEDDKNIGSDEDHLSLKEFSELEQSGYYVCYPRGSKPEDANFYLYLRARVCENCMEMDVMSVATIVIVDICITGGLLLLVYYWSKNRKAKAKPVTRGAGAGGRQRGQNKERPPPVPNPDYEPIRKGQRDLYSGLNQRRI

结合MFI: 521 MFI
B1: A30322 抗CD3单域抗体 (sdAb) (VHH, not shown: large carriers)
VHH: EVQLVECGGGLVQAGGSLRLSCAASGRTFDTMGWFRQAPGKEREFVAAVRWSSGNTYYGNTVKGRFTISRDTATNTVYLEMNSLKHEDTAVYYCAARLAGRGAADHWGQGTQVTVSS
